According to PMC2914671, “A VLP-based vaccine targeting domain III of the West Nile virus E protein protects from lethal infection in mice” (Virology Journal, 2010):

Target: the molecule itself
Experiment: transmission electron microscopy; purified AP205 VLPs adsorbed onto carbon-Formvar-coated grids, stained with 2% phosphotungstic acid

B1: AP205 virus-like particles (recombinantly expressed coat protein of bacteriophage AP205) (natural protein)
chain: MANKPMQPITSTANKIVWSDPTRLSTTFSASLLRQRVKVGIAELNNVSGQYVSVYKRPAPKPEGCADACVIMPNENQSIRTVISGSAENLATLKAEWETHKRNVDTLFASGNAGLGFLDPTAAIVSSDTTA
notes: coat protein of the Acinetobacter bacteriophage AP205; monomer 14.0 kDa; The VLPs hold about 25-30 ug of host cell RNA per 100 ug of coat protein; also called AP205 VLPs; AP205 VLP carrier; source: E. coli, purified from cleared lysates (Fractogel TMAE anion exchange, hydroxyapatite); copies: 180
B1: binds.
